Measurements as given in paper doi:10.1101/2025.09.11.675134, “Biodistribution-Driven Discovery Identifies a Glycosidase-Cleavable Linker to Reprogram Radiotheranostics” (bioRxiv, 2025).
Entries after “also recorded” stand apart in the source; their conditions may differ.

Experiments:
AR42J xenografts [1] = experiment: PET/CT quantification of 86Y-labeled variants in AR42J xenograft mice; assay type: in vivo; conditions: PET SUVmax, 24 h post-injection
Procedure: For studies involving three variants (DOTA -TATE, DOTA-MVK(ε)-TATE, and DOTA-β-Gal-TATE), AR42J cells (5 × 10^6 cells per mouse) were subcutaneously inoculated into the right shoulder of the mice. Tumors were allowed to grow for 3 weeks, reaching a volume of 100 –200 mm³ before being used in subsequent experiments. For biodistribution or PET imaging studies, mice bearing subcutaneous AR42J tumors were administered 1.4 – 1.8 MBq (1 μg) of 111In-labeled DOTA-TATE variants or 2.7 – 4.9 MBq (1 μg) of 86Y-labeled DOTA-TATE variants via […]
tail vein injection. […]
PET imaging to assess the uptake of three 86Y-labeled DOTA-TATE variants (2.7 – 4.9 MBq, 1 μg) in the kidney and tumor was performed at 1, 4, and 24 hours post-injection (n = 3 per cohort) in mice bearing AR42J tumors using the MRS*PET/CT 120 scanner (MR Solutions, Guildford, UK). PET/CT data acquisition was managed using Preclinical Scan software (version 4.2.4.0, MR Solutions). Mice were anesthetized with 2% isoflurane, and static PET sc ans were acquired over 10 min. CT scans were obtained for attenuation correction and anatomical co-registration.
PET data were reconstructed using three-dimensional ordered-subsets expectation maximization, and were subsequently normalized, decay - and dead-time–corrected prior to analysis. PET/CT images were analyzed using MIM software (version 7.2.7, MIM Software Inc., Beachwood, OH, USA), and the quantitative evaluation of the maximum standardized uptake (SUVmax) and the average standardized uptake values (SUVmean) in the kidney and tumor were also performed. […]

[2] = Urine metabolite analysis by radio-HPLC; assay type: in vivo; conditions: normal non-tumor-bearing athymic nu/nu mice, i.v. 13–15 MBq in 200 μL PBS (4 μg), urine 1 h post-injection, n = 3
Procedure: To elucidate the role of linker cleavage in reducing renal retention, we performed metabolite analysis of ^86Y-labeled DOTA-TATE derivatives in normal, non-tumor-bearing athymic nu/nu mice. […] These samples were analyzed by radio-HPLC alongside synthetic standards corresponding to the expected cleavage products: ^86Y-DOTA-G-M-OH and ^86Y-DOTA-NHMe (Fig. 4A).

AR42J xenografts [3] = experiment: Ex vivo biodistribution of 111In-labeled variants in AR42J xenograft mice; design: species or system athymic nude mice; conditions: AR42J xenografts, 1 h post-injection
Procedure: For studies involving three variants (DOTA -TATE, DOTA-MVK(ε)-TATE, and DOTA-β-Gal-TATE), AR42J cells (5 × 10^6 cells per mouse) were subcutaneously inoculated into the right shoulder of the mice. Tumors were allowed to grow for 3 weeks, reaching a volume of 100 –200 mm³ before being used in subsequent experiments. For biodistribution or PET imaging studies, mice bearing subcutaneous AR42J tumors were administered 1.4 – 1.8 MBq (1 μg) of 111In-labeled DOTA-TATE variants or 2.7 – 4.9 MBq (1 μg) of 86Y-labeled DOTA-TATE variants via tail vein injection. Biodistribution studies with 111In-labeled DOTA -TATE variants were performed 1 hour post -injection (n = 3 per cohort), while studies with 86Y-labeled DOTA-TATE variants were conducted at 1, 4, and 24 hours post -injection (n = 3 per cohort). Mice were euthanized by CO2 asphyxiation, and 10 tissues, including tumors, were collected. All samples were weighed and counted on a gamma counter (2480 Wizard 3, Perkin Elmer Inc., Waltham, MA, USA). Results are presented as percentage of injected activity per gram (%IA/g) and mean values ± standard deviations. […]

AR42J xenografts [4] = experiment: Targeted alpha particle therapy, two-cycle regimen; assay type: in vivo, athymic nu/nu mice; conditions: 2 × 148 kBq
Procedure: To further assess therapeutic efficacy, AR42J xenograft-bearing mice received two cycles of ^225Ac-labeled constructs (2 × 148 kBq, administered 8 days apart) (Fig. 5D). […] Complete tumor regression occurred in two of six animals in each cleavable linker group.
(§1) Mice received either a one-cycle regimen (n=8 per cohort) or a two-cycle regimen (n=6 per cohort) at an 8-day interval. Tumor volume and body weight were measured twice weekly after treatment using a digital caliper. Tumor volume was calculated using the formula V (mm^3) = (l × w^2)/2, where l (length) was the larger of the two perpendicular tumor axes, and w (width) was the smaller axis. Survival was monitored, with the endpoint defined as a tumor volume exceeding 2000 mm^3, a weight loss greater than 20% from baseline, or signs of distress in the mice.

[5] = Blood chemistry and complete blood count during therapy; assay type: in vivo, athymic nu/nu mice; conditions: one cycle of 225Ac treatment (148 kBq), blood at 0, 10 and 31 days, VetScan HM5
From the text: Blood samples were collected at multiple timepoints during therapy studies and analyzed to assess toxicity (Fig. S25). Biochemical parameters of liver (e.g. alanine aminotransferase, bilirubin) and renal (blood urea nitrogen, and creatinine) toxicity remained mostly within normal limits across all groups. […] These findings further support the favorable tolerability profiles of the cleavable linker constructs.
Additionally, a basic metabolic panel (BMP) and complete blood count (CBC) analysis were performed to monitor hematological parameters and potential treatment-related toxicity. For the one-cycle therapy cohort, blood was collected at 0-, 10-, and 31-days post-treatment, whereas for the two-cycle therapy cohort, blood was collected at 10 days, 3 months, and 6 months post-treatment. Samples were obtained retro-orbitally into potassium EDTA-coated tubes and analyzed using the Vetscan VS2 (Abaxis, Union City, CA, USA) and VetScan HM5 hematology analyzer (Abaxis). Although these instruments provide species-specific reference intervals, manufacturer-supplied ranges may not fully reflect our study cohort. […] The following parameters were assessed and compared: alanine transaminase (ALT, U/L), total bilirubin (TBIL, μmol/L), creatinine (CRE, μmol/L), blood urea nitrogen (BUN, mmol/L), total white blood cell count (WBC, 10^9/L), hemoglobin (HGB, g/dL), and platelets (PLT, 10^9/L).

AR42J xenografts [6] = experiment: Targeted alpha particle therapy, one-cycle regimen; assay type: in vivo, athymic nu/nu mice
Procedure: Building on the favorable dosimetry profiles observed for the cleavable linker-modified constructs, we next evaluated their therapeutic efficacy in vivo following one cycle of ^225Ac-labeled variants (Fig. 5C; Fig. S19A). […] Tumor growth, overall survival, and body weight were monitored over 95 days.
as §1

C[C@@H](O)[C@H](NC(=O)[C@@H]1CSSC[C@H](NC(=O)[C@@H](Cc2ccccc2)NC(=O)CCCC(=O)Nc2cc(COC(=O)N(C)CCNC(=O)CN3CCN(CC(=O)O)CCN(CC(=O)O)CCN(CC(=O)O)CC3)ccc2O[C@@H]2O[C@H](CO)[C@H](O)[C@H](O)[C@H]2O)C(=O)N[C@@H](Cc2ccc(O)cc2)C(=O)N[C@H](Cc2c[nH]c3ccccc23)C(=O)N[C@@H](CCCCN)C(=O)N[C@@H]([C@@H](C)O)C(=O)N1)C(=O)O [^86Y-DOTA-β-Gal-TATE, metal not drawn]
T/K ratio higher than that of 86Y-DOTA-MVK(ε)-TATE (AR42J xenografts [1]): approximately 2.7 fold | T/K ratio higher than that of 86Y-DOTA-TATE (AR42J xenografts [1]): over 10 fold | Share of total urinary radioactivity corresponding to the cleaved metabolite (86Y-DOTA-G-M-OH or 86Y-DOTA-NHMe) [2]: 47.4%

C[C@@H](O)[C@H](NC(=O)[C@@H]1CSSC[C@H](NC(=O)[C@@H](Cc2ccccc2)NC(=O)CCCC(=O)Nc2cc(COC(=O)N(C)CCNC(=O)CN3CCN(CC(=O)O)CCN(CC(=O)O)CCN(CC(=O)O)CC3)ccc2O[C@@H]2O[C@H](CO)[C@H](O)[C@H](O)[C@H]2O)C(=O)N[C@@H](Cc2ccc(O)cc2)C(=O)N[C@H](Cc2c[nH]c3ccccc23)C(=O)N[C@@H](CCCCN)C(=O)N[C@@H]([C@@H](C)O)C(=O)N1)C(=O)O [^111In-DOTA-β-Gal-TATE, metal not drawn]
Improvement of T/K ratio over DOTA-TATE (AR42J xenografts [3]): 2.7 fold | Increase in tumor uptake compared to DOTA-TATE (AR42J xenografts [3]): ~ 90% | Reduction in kidney retention compared to DOTA-TATE (AR42J xenografts [3]): ~ 29%

C[C@@H](O)[C@H](NC(=O)[C@@H]1CSSC[C@H](NC(=O)[C@@H](Cc2ccccc2)NC(=O)CCCC(=O)Nc2cc(COC(=O)N(C)CCNC(=O)CN3CCN(CC(=O)O)CCN(CC(=O)O)CCN(CC(=O)O)CC3)ccc2O[C@@H]2O[C@H](CO)[C@H](O)[C@H](O)[C@H]2O)C(=O)N[C@@H](Cc2ccc(O)cc2)C(=O)N[C@H](Cc2c[nH]c3ccccc23)C(=O)N[C@@H](CCCCN)C(=O)N[C@@H]([C@@H](C)O)C(=O)N1)C(=O)O [^225Ac-DOTA-β-Gal-TATE, metal not drawn]
Tumor control (AR42J xenografts [4]; 8-day interval, n = 6): significantly smaller; also recorded: prolonged tumor control with sustained growth inhibition | Median survival time (AR42J xenografts [4]; 8 days apart, AR42J xenograft-bearing mice, n = 6, Kaplan–Meier, vehicle 26.5 days): 191.5 days | Mice with tumor volumes below 100 mm^3 by the final monitoring point (AR42J xenografts [4]; n = 6): all six | White blood cell counts [5]: transient decrease following one cycle of ^225Ac treatment that recovered at later time points | Median survival time (AR42J xenografts [6]; 148 kBq (1 μg) per mouse, AR42J xenograft-bearing mice, n = 8, Kaplan–Meier, vehicle 16 days): 86 days | Tumor growth (AR42J xenografts [6]; 148 kBq per mouse, monitored over 95 days, n = 8): most sustained inhibition of tumor growth, with minimal progression observed up to day 35 post-treatment | Body weight (AR42J xenografts [6]; 148 kBq per mouse, n = 8): gradually regained weight by day 14, maintaining stable body weights for the remainder of the study
